Source: US20140030267A1, “COMPOSITIONS, METHODS AND KITS RELATING TO RESISTIN” (The Trustees of the University of Pennsylvania, priority 1999, published 2014)

Tests used:
resistin gene expression = assay: Northern blot of resistin gene expression in 3T3-L1 adipocytes treated with TZD; type: cell-based, murine; details: rosiglitazone 1 μM
Description: 3T3-L1 cells were differentiated to adipocytes then treated with the indicated vehicles (ethanol [EtOH] or dimethylsulfoxide [DMSO]) or with the indicated TZD compounds (each at 1 μM). Then, RNA was prepared and analyzed using Northern blot analysis using resistin cDNA probe.
FIG. 6 is an image of a Northern blot depicting the time course of resistin expression down-regulation by rosiglitazone. BRL49653 (rosiglitazone) was used at a concentration of 1 μM in DMSO. The Northern blot was probed using mouse resistin cDNA. The position of resistin mRNA is indicated in the image. 3T3-L1 cells were differentiated to adipocytes then treated with rosiglitazone (1 μM) for the indicated times (in hours) before RNA was isolated. Resistin expression was examined using Northern analysis using resistin cDNA probe.
To clone and identify resistin, 3T3-L1 cells were differentiated into adipocytes using a standard protocol using differentiation medium (DM) containing dexamethasone, insulin, isobutylmethylxanthine, and fetal bovine serum as described in Green and Kehinde (1975, Cell 5:19-27) and Green and Meuth (1974, Cell 3:127-133). On the seventh day of culture, the cells were treated with either dimethylsulfoxide (DMSO) or 1 micromolar BRL49653 (rosiglitazone) in DMSO. […]

[1] = Glucose tolerance test in mice after administration of resistin; type: in vivo
Description: Prior to injection into animals, 30 ml of conditioned media harvested from recombinant 293T cells expressing resistin was concentrated into 5 ml using an Ultrafree-15 centrifugal filter device (Millipore).
Male and female mice, 9 weeks of age, were administered 200 microliters of concentrated conditioned media intraperitonially just prior to the dark cycle. Mice were consequently fasted overnight. Twelve hours later, a second intraperitional dose of concentrated CM was administered to each animal. Two hours after the second administration, the mice were given a glucose challenge of 10 microliters per gram of body weight of 20% glucose in PBS solution. Blood glucose levels were determined using a Fast-Take glucometer (Johnson & Johnson) at thirty minute intervals for a two hour period.
The blood glucose levels of mice dosed with resistin are depicted using dotted lines in FIG. 21, and control glucose values are indicated using solid lines (FIG. 21). More specifically, eight female mice (4 per group) were treated with either vehicle (solid lines) or resistin preparation (dashed lines) prepared using conditioned medium obtained from recombinant 293T cells as described elsewhere herein.

Molecule	time after exposure at which the effect on resistin expression is maximal (resistin gene expression)	blood glucose 30 minutes after glucose administration ([1]; female mice, intraperitoneal resistin preparation, 30 minutes after glucose challenge)	glucose tolerance ([1]; mice, resistin preparation)
CN(CCOc1ccc(CC2SC(=O)NC2=O)cc1)c1ccccn1 (stereo not drawn) [rosiglitazone]	48 h		
resistin: mouse resistin (SEQ ID NO:2) in concentrated conditioned medium of recombinant 293T cells expressing resistin (protein) SSMPLCPIDEAIDKKIKQDFNSLFPNAIKNIGLNCWTVSSRGKLASCPEGTAVLSCSCGSACGSWDIRGGKVCHCQCARIDWTAARCCKLQVAS		395.+−0.67 mg/dl	reducing glucose tolerance to diabetic levels
